According to publication doi:10.1101/116368:

Molecular target: STARD1^S195E mutant (human StAR domain, residues 66-285) (human) (UniProt P49675)
Assay: SEC

fraction of dimers: < 3%
Substance: STARD1^S195E mutant (human StAR domain, residues 66-285) (from UniProt P49675 66-285) (domain or fragment)
